Five sequences from the supplement of paper PMC5998384 can be followed below.

In series [1] the test system is HeLa Kyoto. As to the kind of experiment: solubility in G1/S (NP-40 vs SDS abundance) (log2 ratio); higher = more soluble. The settings on record: cell cycle stage: G1/S.
The test system of series [2] is HeLa Kyoto. As to the kind of experiment: melting temperature (median over replicates), in situ; higher = more thermally stable.
Series [3] relates to HeLa Kyoto. The experiment in a line: thermal stability score vs G1/S (z-score of summed log2 fold changes over temperatures); higher = more thermally stable than in G1/S.
The subject of series [4] is HeLa Kyoto. As to the kind of experiment: solubility change mitosis vs G1/S (difference of NP-40 vs SDS log2 ratios) (log2 ratio difference); higher = more soluble in mitosis.
Setting [5] is: cell cycle stage: early G1 (4.5 h after nocodazole release).
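Throughout, for melting temperature (median over replicates), in situ: HeLa Kyoto cells synchronized by double thymidine or nocodazole block, proteins quantified by TMT10plex mass spectrometry, three independent biological replicates.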
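Throughout, for solubility change mitosis vs G1/S (difference of NP-40 vs SDS log2 ratios): synchronized HeLa Kyoto cells (double thymidine block for G1/S, nocodazole release for mitosis), protein amounts in NP-40 versus SDS lysates quantified by mass spectrometry, three biological replicates.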
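Throughout, for solubility in G1/S (NP-40 vs SDS abundance): HeLa Kyoto cells arrested at G1/S by double thymidine block, proteins quantified by TMT10plex mass spectrometry in mild NP-40 versus SDS extracts, three biological replicates.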
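Throughout, for thermal stability score vs G1/S (z-score of summed log2 fold changes over temperatures): synchronized HeLa Kyoto cells, proteins quantified by TMT10plex mass spectrometry, three biological replicates, mitosis taken 0.5 h after nocodazole release, G1/S directly after double thymidine block.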

For “MAREKEMQEFTRSFFRGRPDLSTLTHSIVRRRYLAHSGRSHLEPEEKQALKRLVEEELLKMQVDEAASREDKLDLTKKGKRPPTPCSDPERKRFRFNSESESGSEASSPDYFGPPAKNGVAAEVSPAKEENPRRASKAVEESSDEERQRDLPAQRGEESSEEEEKGYKGKTRKKPVVKKQAPGKASVSRKQAREESEESEAEPVQRTAKKVEGNKGTKSLKESEQESEEEILAQKKEQREEEVEEEEKEEDEEKGDWKPRTRSNGRRKSAREERSCKQKSQAKRLLGDSDSEEEQKEAASSGDDSGRDREPPVQRKSEDRTQLKGGKRLSGSSEDEEDSGKGEPTAKGSRKMARLGSTSGEESDLEREVSDSEAGGGPQGERKNRSSKKSSRKGRTRSSSSSSDGSPEAKGGKAGSGRRGEDHPAVMRLKRYIRACGAHRNYKKLLGSCCSHKERLSILRAELEALGMKGTPSLGKCRALKEQREEAAEVASLDVANIISGSGRPRRRTAWNPLGEAAPPGELYRRTLDSDEERPRPAPPDWSHMRGIISSDGESN [HIRIP3]”, the “solubility in G1/S (log2)” value in series [1] was 0.0105. The melting temperature in series [2] (cell cycle stage: G1/S) stood at 53 °C; in series [2] (cell cycle stage: mitosis), 52.5 °C. Further, the thermal stability score was determined as 0.379 in series [3] (setting [5]) and 0.978 in series [3] (cell cycle stage: mitosis). For the same sequence, in series [4], the “solubility change mitosis (log2)” value worked out at 0.398.
Turning to “MARELRALLLWGRRLRPLLRAPALAAVPGGKPILCPRRTTAQLGPRRNPAWSLQAGRLFSTQTAEDKEEPLHSIISSTESVQGSTSKHEFQAETKKLLDIVARSLYSEKEVFIRELISNASDALEKLRHKLVSDGQALPEMEIHLQTNAEKGTITIQDTGIGMTQEELVSNLGTIARSGSKAFLDALQNQAEASSKIIGQFGVGFYSAFMVADRVEVYSRSAAPGSLGYQWLSDGSGVFEIAEASGVRTGTKIIIHLKSDCKEFSSEARVRDVVTKYSNFVSFPLYLNGRRMNTLQAIWMMDPKDVREWQHEEFYRYVAQAHDKPRYTLHYKTDAPLNIRSIFYVPDMKPSMFDVSRELGSSVALYSRKVLIQTKATDILPKWLRFIRGVVDSEDIPLNLSRELLQESALIRKLRDVLQQRLIKFFIDQSKKDAEKYAKFFEDYGLFMREGIVTATEQEVKEDIAKLLRYESSALPSGQLTSLSEYASRMRAGTRNIYYLCAPNRHLAEHSPYYEAMKKKDTEVLFCFEQFDELTLLHLREFDKKKLISVETDIVVDHYKEEKFEDRSPAAECLSEKETEELMAWMRNVLGSRVTNVKVTLRLDTHPAMVTVLEMGAARHFLRMQQLAKTQEERAQLLQPTLEINPRHALIKKLNQLRASEPGLAQLLVDQIYENAMIAAGLVDDPRAMVGRLNELLVKALERH [TRAP1]”, in series [1], the “solubility in G1/S (log2)” value is -0.0668. In addition, the melting temperature was 52.8 °C in series [2] (cell cycle stage: G1/S) and 52.7 °C in series [2] (cell cycle stage: mitosis). Also, the thermal stability score is 1.66 in series [3] (setting [5]) and -0.668 in series [3] (cell cycle stage: mitosis). The “solubility change mitosis (log2)” value in series [4] is -0.149.
For “MARGSAVAWAALGPLLWGCALGLQGGMLYPQESPSRECKELDGLWSFRADFSDNRRRGFEEQWYRRPLWESGPTVDMPVPSSFNDISQDWRLRHFVGWVWYEREVILPERWTQDLRTRVVLRIGSAHSYAIVWVNGVDTLEHEGGYLPFEADISNLVQVGPLPSRLRITIAINNTLTPTTLPPGTIQYLTDTSKYPKGYFVQNTYFDFFNYAGLQRSVLLYTTPTTYIDDITVTTSVEQDSGLVNYQISVKGSNLFKLEVRLLDAENKVVANGTGTQGQLKVPGVSLWWPYLMHERPAYLYSLEVQLTAQTSLGPVSDFYTLPVGIRTVAVTKSQFLINGKPFYFHGVNKHEDADIRGKGFDWPLLVKDFNLLRWLGANAFRTSHYPYAEEVMQMCDRYGIVVIDECPGVGLALPQFFNNVSLHHHMQVMEEVVRRDKNHPAVVMWSVANEPASHLESAGYYLKMVIAHTKSLDPSRPVTFVSNSNYAADKGAPYVDVICLNSYYSWYHDYGHLELIQLQLATQFENWYKKYQKPIIQSEYGAETIAGFHQDPPLMFTEEYQKSLLEQYHLGLDQKRRKYVVGELIWNFADFMTEQSPTRVLGNKKGIFTRQRQPKSAAFLLRERYWKIANETRYPHSVAKSQCLENSLFT [GUSB]”, the “solubility in G1/S (log2)” value in series [1] worked out at 0.259. For the same sequence, the melting temperature in series [2] (cell cycle stage: G1/S) was 56.4 °C; in series [2] (cell cycle stage: mitosis) it was 58 °C. Also, the thermal stability score in series [3] (setting [5]) is -0.942; in series [3] (cell cycle stage: mitosis), -0.838. In series [4], the “solubility change mitosis (log2)” value is -0.164.
With “MARSPGRAYALLLLLICFNVGSGLHLQVLSTRNENKLLPKHPHLVRQKRAWITAPVALREGEDLSKKNPIAKIHSDLAEERGLKITYKYTGKGITEPPFGIFVFNKDTGELNVTSILDREETPFFLLTGYALDARGNNVEKPLELRIKVLDINDNEPVFTQDVFVGSVEELSAAHTLVMKINATDADEPNTLNSKISYRIVSLEPAYPPVFYLNKDTGEIYTTSVTLDREEHSSYTLTVEARDGNGEVTDKPVKQAQVQIRILDVNDNIPVVENKVLEGMVEENQVNVEVTRIKVFDADEIGSDNWLANFTFASGNEGGYFHIETDAQTNEGIVTLIKEVDYEEMKNLDFSVIVANKAAFHKSIRSKYKPTPIPIKVKVKNVKEGIHFKSSVISIYVSESMDRSSKGQIIGNFQAFDEDTGLPAHARYVKLEDRDNWISVDSVTSEIKLAKLPDFESRYVQNGTYTVKIVAISEDYPRKTITGTVLINVEDINDNCPTLIEPVQTICHDAEYVNVTAEDLDGHPNSGPFSFSVIDKPPGMAEKWKIARQESTSVLLQQSEKKLGRSEIQFLISDNQGFSCPEKQVLTLTVCECLHGSGCREAQHDSYVGLGPAAIALMILAFLLLLLVPLLLLMCHCGKGAKGFTPIPGTIEMLHPWNNEGAPPEDKVVPSFLPVDQGGSLVGRNGVGGMAKEATMKGSSSASIVKGQHEMSEMDGRWEEHRSLLSGRATQFTGATGAIMTTETTKTARATGASRDMAGAQAAAVALNEEFLRNYFTDKAASYTEEDENHTAKDCLLVYSQEETESLNASIGCCSFIEGELDDRFLDDLGLKFKTLAEVCLGQKIDINKEIEQRQKPATETSMNTASHSLCEQTMVNSENTYSSGSSFPVPKSLQEANAEKVTQEIVTERSVSSRQAQKVATPLPDPMASRNVIATETSYVTGSTMPPTTVILGPSQPQSLIVTERVYAPASTLVDQPYANEGTVVVTERVIQPHGGGSNPLEGTQHLQDVPYVMVRERESFLAPSSGVQPTLAMPNIAVGQNVTVTERVLAPASTLQSSYQIPTENSMTARNTTVSGAGVPGPLPDFGLEESGHSNSTITTSSTRVTKHSTVQHSYS [DSG2]”, the “solubility in G1/S (log2)” value in series [1] is -0.504. For the same sequence, the melting temperature in series [2] (cell cycle stage: G1/S) worked out at 55.1 °C; in series [2] (cell cycle stage: mitosis), 56 °C. Besides, the figures for the thermal stability score in series [3] (setting [5]) and in series [3] (cell cycle stage: mitosis) were -1.15 and -1.27, respectively. The “solubility change mitosis (log2)” value in series [4] is -0.164.
For “MARSVRVLVDMDGVLADFEAGLLRGFRRRFPEEPHVPLEQRRGFLAREQYRALRPDLADKVASVYEAPGFFLDLEPIPGALDAVREMNDLPDTQVFICTSPLLKYHHCVGEKYRWVEQHLGPQFVERIILTRDKTVVLGDLLIDDKDTVRGQEETPSWEHILFTCCHNRHLVLPPTRRRLLSWSDNWREILDSKRGAAQRE [NT5C]”, in series [1], the “solubility in G1/S (log2)” value was 0.0484. Also, the melting temperature was 55.9 °C in series [2] (cell cycle stage: G1/S) and 57 °C in series [2] (cell cycle stage: mitosis). The values for the thermal stability score in series [3] (setting [5]) and in series [3] (cell cycle stage: mitosis) were -0.241 and -1.24, respectively. The “solubility change mitosis (log2)” value in series [4] was -0.172.
